Data: the supplement of paper PMC10567573

B1: FBF1 (parent)
chain: LQRASILDMRRDHEEQLQRLKLLK

Variants of: B1
Test: protein stability index of a GFP-peptide fusion (GPS, HEK-293T) (PSI 1-6); higher = more stable
Conditions: c terminus: a fixed tail appended
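Note: lentivirally expressed fusions sorted by FACS into six bins by GFP to DsRed ratio, PSI derived from sequencing read proportions per bin multiplied by bin number.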

Variant	protein stability index
LQRASKLDMRRDHEEQLQRLKLLK [I6K]	3.7
LQRASNLDMRRDHEEQLQRLKLLK [I6N]	4.16
LQRASSLDMRRDHEEQLQRLKLLK [I6S]	4.15
LQRASPLDMRRDHEEQLQRLKLLK [I6P]	3.94
LQRASLLDMRRDHEEQLQRLKLLK [I6L]	4.02
LQRASQLDMRRDHEEQLQRLKLLK [I6Q]	4.06
LQRASRLDMRRDHEEQLQRLKLLK [I6R]	3.46
LQRASYLDMRRDHEEQLQRLKLLK [I6Y]	3.58
LQRASFLDMRRDHEEQLQRLKLLK [I6F]	3.51
LQRASELDMRRDHEEQLQRLKLLK [I6E]	3.98
LQRASVLDMRRDHEEQLQRLKLLK [I6V]	3.57
LQRASCLDMRRDHEEQLQRLKLLK [I6C]	3.4
LQRASDLDMRRDHEEQLQRLKLLK [I6D]	4.31
LQRASGLDMRRDHEEQLQRLKLLK [I6G]	4.28
LQRASWLDMRRDHEEQLQRLKLLK [I6W]	3.62
LQRASALDMRRDHEEQLQRLKLLK [I6A]	4.03
LQRASHLDMRRDHEEQLQRLKLLK [I6H]	4.19
LQRASMLDMRRDHEEQLQRLKLLK [I6M]	3.94
LQRASTLDMRRDHEEQLQRLKLLK [I6T]	3.66
LQIASILDMRRDHEEQLQRLKLLK [R3I]	2.23
LQVASILDMRRDHEEQLQRLKLLK [R3V]	2.92
LQPASILDMRRDHEEQLQRLKLLK [R3P]	4.02
LQCASILDMRRDHEEQLQRLKLLK [R3C]	3.02
LQWASILDMRRDHEEQLQRLKLLK [R3W]	1.9

Variant	protein stability index
LQEASILDMRRDHEEQLQRLKLLK [R3E]	4.12
LQMASILDMRRDHEEQLQRLKLLK [R3M]	3.02
LQKASILDMRRDHEEQLQRLKLLK [R3K]	3.74
LQHASILDMRRDHEEQLQRLKLLK [R3H]	3.92
LQYASILDMRRDHEEQLQRLKLLK [R3Y]	3.4
LQDASILDMRRDHEEQLQRLKLLK [R3D]	4.17
LQQASILDMRRDHEEQLQRLKLLK [R3Q]	3.33
LQFASILDMRRDHEEQLQRLKLLK [R3F]	2.8
LQLASILDMRRDHEEQLQRLKLLK [R3L]	2.92
LQGASILDMRRDHEEQLQRLKLLK [R3G]	4.21
LQSASILDMRRDHEEQLQRLKLLK [R3S]	3.9
LQTASILDMRRDHEEQLQRLKLLK [R3T]	3.5
LQNASILDMRRDHEEQLQRLKLLK [R3N]	3.93
LQRASILDMRADHEEQLQRLKLLK [R11A]	3.23
LQRASILDMRVDHEEQLQRLKLLK [R11V]	3.18
LQRASILDMRFDHEEQLQRLKLLK [R11F]	2.89
LQRASILDMRYDHEEQLQRLKLLK [R11Y]	2.68
LQRASILDMRMDHEEQLQRLKLLK [R11M]	3.03
LQRASILDMRGDHEEQLQRLKLLK [R11G]	3.54
LQRASILDMRLDHEEQLQRLKLLK [R11L]	3.44
LQRASILDMRWDHEEQLQRLKLLK [R11W]	2.64
LQRASILDMRTDHEEQLQRLKLLK [R11T]	3.86
LQRASILDMRIDHEEQLQRLKLLK [R11I]	2.98
LQRASILDMRKDHEEQLQRLKLLK [R11K]	3.7

Variant	protein stability index
LQRASILDMRPDHEEQLQRLKLLK [R11P]	3.67
LQRASILDMREDHEEQLQRLKLLK [R11E]	3.64
LQRASILDMRQDHEEQLQRLKLLK [R11Q]	3.59
LQRASILDMRSDHEEQLQRLKLLK [R11S]	3.43
LQRASILDMRDDHEEQLQRLKLLK [R11D]	3.69
LQRASILDMRNDHEEQLQRLKLLK [R11N]	3.1
LQRASILDMRHDHEEQLQRLKLLK [R11H]	2.88
LQRASILDMRCDHEEQLQRLKLLK [R11C]	3.36
LQRASILDMQRDHEEQLQRLKLLK [R10Q]	3.51
LQRASILDMARDHEEQLQRLKLLK [R10A]	3.36
LQRASILDMSRDHEEQLQRLKLLK [R10S]	3.9
LQRASILDMVRDHEEQLQRLKLLK [R10V]	3.33
LQRASILDMPRDHEEQLQRLKLLK [R10P]	3.53
LQRASILDMERDHEEQLQRLKLLK [R10E]	3.35
LQRASILDMIRDHEEQLQRLKLLK [R10I]	2.96
LQRASILDMNRDHEEQLQRLKLLK [R10N]	3.91
LQRASILDMFRDHEEQLQRLKLLK [R10F]	2.36
LQRASILDMLRDHEEQLQRLKLLK [R10L]	2.5
LQRASILDMDRDHEEQLQRLKLLK [R10D]	3.44
LQRASILDMHRDHEEQLQRLKLLK [R10H]	3.45
LQRASILDMKRDHEEQLQRLKLLK [R10K]	3.97
LQRASILDMMRDHEEQLQRLKLLK [R10M]	2.9
LQRASILDMCRDHEEQLQRLKLLK [R10C]	2.8
LQRASILDMYRDHEEQLQRLKLLK [R10Y]	2.59

Variant	protein stability index
LQRASILDMTRDHEEQLQRLKLLK [R10T]	3.79
LQRASILDMGRDHEEQLQRLKLLK [R10G]	3.79
LQRASILDMWRDHEEQLQRLKLLK [R10W]	3.06
LQRASILDMRREHEEQLQRLKLLK [D12E]	3.93
LQRASILDMRRWHEEQLQRLKLLK [D12W]	2.34
LQRASILDMRRTHEEQLQRLKLLK [D12T]	3.69
LQRASILDMRRNHEEQLQRLKLLK [D12N]	3.78
LQRASILDMRRIHEEQLQRLKLLK [D12I]	3.2
LQRASILDMRRAHEEQLQRLKLLK [D12A]	3.41
LQRASILDMRRMHEEQLQRLKLLK [D12M]	2.81
LQRASILDMRRKHEEQLQRLKLLK [D12K]	3.15
LQRASILDMRRRHEEQLQRLKLLK [D12R]	3.05
LQRASILDMRRLHEEQLQRLKLLK [D12L]	2.8
LQRASILDMRRSHEEQLQRLKLLK [D12S]	3.31
LQRASILDMRRPHEEQLQRLKLLK [D12P]	3.38
LQRASILDMRRHHEEQLQRLKLLK [D12H]	3.3
LQRASILDMRRFHEEQLQRLKLLK [D12F]	2.74
LQRASILDMRRQHEEQLQRLKLLK [D12Q]	3.71
LQRASILDMRRGHEEQLQRLKLLK [D12G]	3.21
LQRASILDMRRVHEEQLQRLKLLK [D12V]	2.94
LQRASILDMRRCHEEQLQRLKLLK [D12C]	2.51
LQRASILDWRRDHEEQLQRLKLLK [M9W]	3.04
LQRASILDIRRDHEEQLQRLKLLK [M9I]	3.81
LQRASILDSRRDHEEQLQRLKLLK [M9S]	3.49

Variant	protein stability index
LQRASILDYRRDHEEQLQRLKLLK [M9Y]	3.61
LQRASILDCRRDHEEQLQRLKLLK [M9C]	2.25
LQRASILDRRRDHEEQLQRLKLLK [M9R]	3.72
LQRASILDLRRDHEEQLQRLKLLK [M9L]	3.24
LQRASILDARRDHEEQLQRLKLLK [M9A]	3.84
LQRASILDVRRDHEEQLQRLKLLK [M9V]	3.61
LQRASILDQRRDHEEQLQRLKLLK [M9Q]	3.86
LQRASILDERRDHEEQLQRLKLLK [M9E]	3.72
LQRASILDHRRDHEEQLQRLKLLK [M9H]	3.49
LQRASILDPRRDHEEQLQRLKLLK [M9P]	3.93
LQRASILDTRRDHEEQLQRLKLLK [M9T]	3.94
LQRASILDKRRDHEEQLQRLKLLK [M9K]	3.9
LQRASILDGRRDHEEQLQRLKLLK [M9G]	4.12
LQRASILDDRRDHEEQLQRLKLLK [M9D]	3.4
LQRASILDFRRDHEEQLQRLKLLK [M9F]	3.22
LQRASILDNRRDHEEQLQRLKLLK [M9N]	3.85
LQRASINDMRRDHEEQLQRLKLLK [L7N]	3.99
LQRASIWDMRRDHEEQLQRLKLLK [L7W]	2.9
LQRASITDMRRDHEEQLQRLKLLK [L7T]	3.38
LQRASIEDMRRDHEEQLQRLKLLK [L7E]	4.55
LQRASIFDMRRDHEEQLQRLKLLK [L7F]	2.85
LQRASIDDMRRDHEEQLQRLKLLK [L7D]	4.03
LQRASIVDMRRDHEEQLQRLKLLK [L7V]	3.97
LQRASIADMRRDHEEQLQRLKLLK [L7A]	4.22

Variant	protein stability index
LQRASIGDMRRDHEEQLQRLKLLK [L7G]	4.1
LQRASIHDMRRDHEEQLQRLKLLK [L7H]	4.1
LQRASIYDMRRDHEEQLQRLKLLK [L7Y]	3.56
LQRASICDMRRDHEEQLQRLKLLK [L7C]	3.68
LQRASIRDMRRDHEEQLQRLKLLK [L7R]	3.6
LQRASIIDMRRDHEEQLQRLKLLK [L7I]	3.09
LQRASIMDMRRDHEEQLQRLKLLK [L7M]	3.85
LQRASISDMRRDHEEQLQRLKLLK [L7S]	4.27
LQRASIQDMRRDHEEQLQRLKLLK [L7Q]	3.65
LQRASIKDMRRDHEEQLQRLKLLK [L7K]	3.42
LQRASIPDMRRDHEEQLQRLKLLK [L7P]	3.98
LQRISILDMRRDHEEQLQRLKLLK [A4I]	3.13
LQRVSILDMRRDHEEQLQRLKLLK [A4V]	2.57
LQRKSILDMRRDHEEQLQRLKLLK [A4K]	3.19
LQRNSILDMRRDHEEQLQRLKLLK [A4N]	3.83
LQRCSILDMRRDHEEQLQRLKLLK [A4C]	2.97
LQRRSILDMRRDHEEQLQRLKLLK [A4R]	3.83
LQRYSILDMRRDHEEQLQRLKLLK [A4Y]	2.96
LQRDSILDMRRDHEEQLQRLKLLK [A4D]	3.64
LQRMSILDMRRDHEEQLQRLKLLK [A4M]	3.19
LQRPSILDMRRDHEEQLQRLKLLK [A4P]	4.08
LQRQSILDMRRDHEEQLQRLKLLK [A4Q]	3.7
LQRSSILDMRRDHEEQLQRLKLLK [A4S]	2.67
LQRWSILDMRRDHEEQLQRLKLLK [A4W]	2.28

Variant	protein stability index
LQRGSILDMRRDHEEQLQRLKLLK [A4G]	3.17
LQRLSILDMRRDHEEQLQRLKLLK [A4L]	3.13
LQRESILDMRRDHEEQLQRLKLLK [A4E]	4.02
LQRFSILDMRRDHEEQLQRLKLLK [A4F]	2.9
LQRTSILDMRRDHEEQLQRLKLLK [A4T]	3.6
LQRHSILDMRRDHEEQLQRLKLLK [A4H]	3.73
LQRAGILDMRRDHEEQLQRLKLLK [S5G]	3.71
LQRAVILDMRRDHEEQLQRLKLLK [S5V]	2.92
LQRAEILDMRRDHEEQLQRLKLLK [S5E]	3.15
LQRAIILDMRRDHEEQLQRLKLLK [S5I]	2.34
LQRAQILDMRRDHEEQLQRLKLLK [S5Q]	3.85
LQRAMILDMRRDHEEQLQRLKLLK [S5M]	3.03
LQRAFILDMRRDHEEQLQRLKLLK [S5F]	2.3
LQRARILDMRRDHEEQLQRLKLLK [S5R]	2.83
LQRAHILDMRRDHEEQLQRLKLLK [S5H]	2.86
LQRALILDMRRDHEEQLQRLKLLK [S5L]	2.49
LQRATILDMRRDHEEQLQRLKLLK [S5T]	3.52
LQRAWILDMRRDHEEQLQRLKLLK [S5W]	2.34
LQRAPILDMRRDHEEQLQRLKLLK [S5P]	3.48
LQRAKILDMRRDHEEQLQRLKLLK [S5K]	3.21
LQRACILDMRRDHEEQLQRLKLLK [S5C]	2.99
LQRAYILDMRRDHEEQLQRLKLLK [S5Y]	2.26
LQRAAILDMRRDHEEQLQRLKLLK [S5A]	3.59
LQRADILDMRRDHEEQLQRLKLLK [S5D]	3.81

Variant	protein stability index
LQRANILDMRRDHEEQLQRLKLLK [S5N]	3.65
LQRASILKMRRDHEEQLQRLKLLK [D8K]	2.77
LQRASILIMRRDHEEQLQRLKLLK [D8I]	2.51
LQRASILYMRRDHEEQLQRLKLLK [D8Y]	2.72
LQRASILQMRRDHEEQLQRLKLLK [D8Q]	3.07
LQRASILWMRRDHEEQLQRLKLLK [D8W]	2.5
LQRASILEMRRDHEEQLQRLKLLK [D8E]	3.86
LQRASILMMRRDHEEQLQRLKLLK [D8M]	3.06
LQRASILHMRRDHEEQLQRLKLLK [D8H]	3.61
LQRASILFMRRDHEEQLQRLKLLK [D8F]	2.56
LQRASILLMRRDHEEQLQRLKLLK [D8L]	2.19
LQRASILTMRRDHEEQLQRLKLLK [D8T]	3.49
LQRASILVMRRDHEEQLQRLKLLK [D8V]	2.33
LQRASILSMRRDHEEQLQRLKLLK [D8S]	3.6
LQRASILRMRRDHEEQLQRLKLLK [D8R]	2.71
LQRASILCMRRDHEEQLQRLKLLK [D8C]	3.2
LQRASILPMRRDHEEQLQRLKLLK [D8P]	3.51
LQRASILNMRRDHEEQLQRLKLLK [D8N]	3.48
LQRASILAMRRDHEEQLQRLKLLK [D8A]	3.01
LQRASILGMRRDHEEQLQRLKLLK [D8G]	2.76
